Laboratory results published in PMC8163371.
Read-outs that look alike come from different tables or passages of the source.

Key:
[1] = target: H3K9me2S28ph nucleosomes (individually reconstituted for quantitative measurements); assay: MST
[2] = target: H3K9me2 nucleosomes (individually reconstituted for quantitative measurements); assay: MST
[3] = target: H3K9me2S28ph nucleosomes (individually reconstituted for quantitative measurements); assay: MST; remark: listed apart in the source
[4] = target: H3K9me2S28ph nucleosomes (individually reconstituted for quantitative measurements); assay: MST; remark: listed apart in the source
[5] = target: HP1β (HP1) (UniProt P83916); assay: eCFP-HP1 retention on H2A + H3 nucleosome library; conditions: reference: H3K9me2 nucleosomes; sites S28
[6] = target: HP1β (HP1) (UniProt P83916); assay: eCFP-HP1 retention on immobilised nucleosome library; conditions: reference: H3K9me2 nucleosomes; sites S28

Row | Kd [1] [nM] | Kd [2] [nM] | Kd [3] [nM] | Kd [4] [nM] | fold stronger binding than the H3K9me2 nucleosome on 187 bp DNA [4] [fold] | fold change [5] [fold] | other: fold enrichment over unmodified H3 nucleosomes [6] | Substance
1 | 1700 | 2400 | 1800 | 600 | 2 | – | – | HP1 without eCFP tag (human HP1β) (from UniProt P83916 1-185) (natural protein)
2 | – | – | – | – | – | 2.3 | stronger; reference 4.8 | histone H3 H3K9me2S28ph nucleosomes
